Test system: F1*sub RNA substrate (template-directed ligation)
Assay: fraction ligated after 30 min (ligated reads / total reads); higher = more ligase activity; sequences stand for … in GAGACCGCAACTGAAAAGTTGT…AGTTCTGCACGTAGAAGCAAAAGGC
Conditions: 42 °C
Method in brief: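 Oligo-pool templates underwent PCR amplification, T7 transcription and gel purification to yield ribozyme variants. Gel-separated ligated and unligated bands were converted to complementary DNA with barcoded primers and sequenced on a MiSeq, keeping core bases of quality ≥20. The ratio of ligated reads to total reads gave the fraction ligated for every variant.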

Sequence | fraction ligated
ATCACTTTCGTAAGACACTTTGATGGGTTGA [3d134] | 0.401
TATCACTTGTGTAAGACACTTGATGGGTTGA [3d1787] | 0.8
ATCACTGTCGTAAGACACTTTGGAGGGTTGA [3d120] | 0.148
TATCACTTTCGTAAGACCTTTGATGGGTTGA [3d1548] | 0.786
TATCACTTGTCGAAGACACTTTGGTGGTTGA [3d1971] | 0.0847
TATCACTTGTCGTAAGCACTTTGATGGGTTGA [2d248] | 0.751
TATCACTGTCGTAAGACACTTTGAGGGTTGA [3d1449] | 0.0155
TTCACTTGTCGTAAGACACTTTGGGGGTTGA [3d497] | 0.0262
TATCACTTGTCGTAGACCTTTGGAGGGTTGA [3d2024] | 0.211
TTCACTTGTCGTAAGACATTTGGATGGGTTG [3d483] | 0.731
ATCACTGTCGTAAGACACTTTGGATGGGTTA [3d122] | 0.298
TATCACTTGTCTAAGACACTTTGGTGGGTTG [3d1894] | 0.0778
TATCACTTTCGTAAACACTTTGGATGGTTGA [3d1526] | 0.0497
TTCACTTGTCGTAAGACACTTTGGTGGGTTGA [2d42] | 0.0345
TTCACTTGTCGTAACACTTTGGATGGGTTGA [3d430] | 0.728
TATCACTTGCGTAGACACTTTGATGGGTTGA [3d1633] | 0.803
ATCACTTGTCTAAGAACTTTGGATGGGTTGA [3d175] | 0.728
TATCCTTGTGTAAGACACTTTGGAGGGTTGA [3d1011] | 0.0114
TATCACTTGTCGTAACACTTTGGATGGGTTGA [2d222] | 0.796
TATCACTGTGTAAGACACTTTGGATGGTTGA [3d1355] | 0.216
TATACTTGTGTAAGCACTTTGGATGGGTTGA [3d832] | 0.776
TATCACTTTCGTAAACCTTTGGATGGGTTGA [3d1520] | 0.788
TATCACTTGTCGTAAGAACTTTGGAGGGTTA [3d2177] | 0.075

Sequence | fraction ligated
TATCACTGTCGAAGACACTTTGGTGGGTTGA [3d1380] | 0.369
TATCACTTGCGTAAACACTTTGATGGGTTGA [3d1643] | 0.768
TATCATTGTCGTAAGACCTTTGGATGGGTTG [3d1261] | 0.778
TATACTTTCGTAAGACACTTTGGATGGGTTG [3d811] | 0.145
ATCACTTGTCTAAGACCTTTGGATGGGTTGA [3d176] | 0.717
TACACTTGTCGTAAGACACTTGGATGGGTTGA [2d62] | 0.183
TATCACTTGTCGTAAGACATTTGGTGGGTTG [3d2223] | 0.0154
TATCACTTGCGTAAGACACTTTGATGGGTTG [3d1693] | 0.725
TATCATGTCTAAGACACTTTGGATGGGTTGA [3d1125] | 0.759
TTCCTTTCGTAAGACACTTTGGATGGGTTGA [3d299] | 0.753
TACACTTGTGTAAACACTTTGGATGGGTTGA [3d620] | 0.0848
ATCACTTGTCGTAAGCACTTTGGTGGGTTGA [3d226] | 0.0296
TATCATTGTCGTAGACATTTGGATGGGTTGA [3d1219] | 0.809
TATCACTTGTCTAAGACCTTGGATGGGTTGA [3d1864] | 0.762
TATACTTGTCTAAGCACTTTGGATGGGTTGA [3d846] | 0.779
ATCACTTGTCGTAAGCACTTTGGAGGGTTGA [3d227] | 0.0599
ATCACTTGTCGTAAGCACTTTGGATGGTTGA [3d228] | 0.195
TATCATTGTCGTAAGCACTTGGATGGGTTGA [3d1240] | 0.771
TACACTTGTCGAAGAACTTTGGATGGGTTGA [3d649] | 0.195
TACACTTGTCTAAGACATTTGGATGGGTTGA [3d638] | 0.457
TATCATTGTGTAAGACACTTTGGATGGGTTG [3d1186] | 0.786
TATCCTTGTCGTAAGACACTTTGGATGGGTT [3d1119] | 0.0366
TATCATTTCGTAAGACACTTTGATGGGTTGA [3d1150] | 0.799

Sequence | fraction ligated
TATACTTGTCGTAAGACATTTGATGGGTTGA [3d919] | 0.735
TATACTTGTCGTAAGAACTTTGGATGGGTTA [3d909] | 0.0459
ATACTTGTCGTAGACACTTTGGATGGGTTGA [3d54] | 0.0939
TATACTTGTCTAAGACACTTTGGATGGGTTA [3d855] | 0.0424
TATACTTGTCGTAAGACACTTTGGAGGTTGA [3d942] | 0.00359
TATCACTTGTCGTAAGACCTTTGGAGGGTTGA [2d265] | 0.072
TACACTTGTCGTAAGACATTTGGAGGGTTGA [3d710] | 0.0254
TATCACTGTCTAAGACACTTTGGAGGGTTGA [3d1368] | 0.102
TATCACTTGTCGTAAGACACTTGATGGGTTA [3d2242] | 0.0227
TTCATTGTGTAAGACACTTTGGATGGGTTGA [3d320] | 0.137
ATCACTTGTCTAAGACACTTTGGATGGTTGA [3d182] | 0.676
TATCACTTGTCGTAAGCACTTTGGGGGTTGA [3d2141] | 0.129
TATCACTTGTCGAAGACATTTGATGGGTTGA [3d1951] | 0.329
TATCACTTTCGAAGACACTTTGGATGGGTTG [3d1505] | 0.792
TATCACTTGTCGTAAGACACTTGGAGGGTTA [3d2249] | 0.0115
TATCACTTGTCGTAAACACTTTGGATGGTTGA [2d241] | 0.295
TATCACTGTCGTAAGACCTTTGGATGGTTGA [3d1430] | 0.628
TATCACTTGTCTAAGACACTTTGGAGGTTGA [3d1895] | 0.095
TATCACTTGTCTAAGACACTTGGATGGGTTA [3d1883] | 0.701
TATCACTTGTCGAAGACACTTTGGATGGGTTG [2d220] | 0.856
TATCATTGTCGTAAGAACTTTGGATGGTTGA [3d1252] | 0.0537
TACACTTGTCGTAGCACTTTGGATGGGTTGA [3d661] | 0.0075
TATACTGTCGTAAGACATTTGGATGGGTTGA [3d788] | 0.756

Sequence | fraction ligated
TTCACTTGTCGTAAACACTTTGGATGGGTTA [3d450] | 0.0146
TATCACTTGTCTAAGACACTTTGATGGTTGA [3d1888] | 0.0589
TATCATTGTCGTAAGACCTTTGGAGGGTTGA [3d1258] | 0.104
ATACTTGTCGTAAGACATTTGGATGGGTTGA [3d59] | 0.446
TATCACTTTGTAAGAACTTTGGATGGGTTGA [3d1469] | 0.866
TATCCTTTGTAAGACACTTTGGATGGGTTGA [3d968] | 0.772
TATCACTTGTCGTAGACACTTTGGAGGGTTA [3d2053] | 0.0985
TATCACTTGTCGGACACTTTGGATGGGTTGA [3d1902] | 0.785
TTCACTTGTCGTAAGACACTTTGGAGGGTTA [3d502] | 0.0179
TATCACTGTCGTAAGACATTTGGATGGGTTG [3d1439] | 0.82
TCACTTGTCGTAAGACATTTGGATGGGTTGA [3d16] | 0.782
TATACTTGTCGAAGACATTTGGATGGGTTGA [3d862] | 0.762
TATCACTTGTCGTAGAATTTGGATGGGTTGA [3d2013] | 0.832
TTCACTTGTCGTAAGAACTTTGGATGGGTTGA [2d37] | 0.748
TATCACTTGCTAAGCACTTTGGATGGGTTGA [3d1602] | 0.834
TATCCTTGTCTAAACACTTTGGATGGGTTGA [3d1017] | 0.793
TATATTGTCGTAAGACCTTTGGATGGGTTGA [3d768] | 0.468
TATACTTGTCGTAAGCACTTTGGATGGGTTA [3d901] | 0.0196
TATACTTGTCGTAAACATTTGGATGGGTTGA [3d885] | 0.78
TATCACTTGTGTAAGACACTTTGTGGGTTGA [3d1794] | 0.00464
TATCATTGTCGTAAGAACTTTGGAGGGTTGA [3d1251] | 0.0299
TACACTTGTCGAAGACACTTTGATGGGTTGA [3d653] | 0.0665
TATCATTGTCGTAGCACTTTGGATGGGTTGA [3d1216] | 0.814

Sequence | fraction ligated
ATCACTTTCGTAAGACATTTGGATGGGTTGA [3d132] | 0.781
TATCACTTGCGTAAGACACTTTGGTGGTTGA [3d1695] | 0.0605
TATCACTTTCGAGACACTTTGGATGGGTTGA [3d1493] | 0.79
TATACTTGCGTAAGCACTTTGGATGGGTTGA [3d817] | 0.739
ATCACTTGTGTAAGACACTTTGGATGGGTTA [3d169] | 0.598
TATCACTTGTGTAAACACTTTGGAGGGTTGA [3d1750] | 0.0713
TATCCTTTCGTAAGACACTTTGGTGGGTTGA [3d979] | 0.0729
TACACTTGTCGTAAGACACTTTGGAGGGTTGA [2d65] | 0.182
TATACTTGTCTAAGACATTTGGATGGGTTGA [3d849] | 0.811
TATCACTTGTTAAGACACTTGGATGGGTTGA [3d1711] | 0.784
TATCACTGTCGTAAGACCTTTGGTGGGTTGA [3d1428] | 0.441
TATCACTTGTCGAGACACTTTGATGGGTTGA [3d1909] | 0.74
TATCACTTGTGTAAGACCTTTGGATGGTTGA [3d1776] | 0.204
TATCATGTCGTAAGACACTTGGATGGGTTGA [3d1133] | 0.776
TATCCTTGTGTAGACACTTTGGATGGGTTGA [3d1002] | 0.808
TATACTTGCGTAAGACACTTTGGATGGTTGA [3d825] | 0.0234
ATACTTGTCGTAAGCACTTTGGATGGGTTGA [3d56] | 0.279
TATCACTTGTTAAGACCTTTGGATGGGTTGA [3d1709] | 0.785
TATCACTTGTCGTAAGCATTTGGAGGGTTGA [3d2124] | 0.0316
ATCACTGTCGTAAGACACTTTGGATGGGTTGA [2d6] | 0.739

— the supplement of paper PMC6755084
